This note sets out measurements from article PMC12291119, “In Vitro Selection of Cyclized, Glycosylated Peptide Antigens That Tightly Bind HIV High Mannose Patch Antibodies” (ACS Central Science, 2025).

Test in all cases: BLI; glycopeptides immobilized via biotin on a streptavidin biosensor; series of 2-fold dilutions of antibody
The target in experiment [1] is H1 mutant without the glycan at the first of the three glycosylation sites (peptide 3).
For experiment [2], the target named is H22 glycopeptide (peptide 2).
Experiment [3] deals with L1 glycopeptide (peptide 8).
In experiment [4] the target is random scrambled version of the H1 sequence containing three glycans and cyclization (peptide 6).
Experiment [5] addresses H1 mutant without the glycans at the second and third glycosylation sites (peptide 4).
In experiment [6] the target is H1 glycopeptide (peptide 1).
The target in experiment [7] is H1 mutant with IGDIR changed to IAAIA (peptide 5).
Experiment [8] concerns the target acyclic H1 variant (peptide 7).

B1: PGT128 (antibody, V domains shown)
VH: QPQLQESGPTLVEASETLSLTCAVSGDSTAACNSFWGWVRQPPGKGLEWVGSLSHCASYWNRGWTYHNPSLKSRLTLALDTPKNLVFLKLNSVTAADTATYYCARFGGEVLRYTDWPKPAWVDLWGRGTLVTVSS
VL: QSALTQPPSASGSPGQSITISCTGTSNNFVSWYQQHAGKAPKLVIYDVNKRPSGVPDRFSGSKSGNTASLTVSGLQTDDEAVYYCGSLVGNWDVIFGGGTKLTVL
Molecule B1 gave a fold loss of recognition against H1 (peptide 1) in experiment [1] of 2 fold. Also, the dissociation constant (Kd) in experiment [2] was 16.9 nM; in experiment [3], 2.37 nM; in experiment [4], 251 nM; in experiment [6], 0.52 nM; in experiment [8] it was 90 nM. For the same molecule, the fold decrease in binding against H1 (peptide 1) turned out to be 40 fold in experiment [5] and 26 fold in experiment [7].
